T1: canine COX-3 (Canis lupus familiaris, UniProt Q8HZR1)
T1 sequence (Q8HZR1 1-633 isoform Q8HZR1-2): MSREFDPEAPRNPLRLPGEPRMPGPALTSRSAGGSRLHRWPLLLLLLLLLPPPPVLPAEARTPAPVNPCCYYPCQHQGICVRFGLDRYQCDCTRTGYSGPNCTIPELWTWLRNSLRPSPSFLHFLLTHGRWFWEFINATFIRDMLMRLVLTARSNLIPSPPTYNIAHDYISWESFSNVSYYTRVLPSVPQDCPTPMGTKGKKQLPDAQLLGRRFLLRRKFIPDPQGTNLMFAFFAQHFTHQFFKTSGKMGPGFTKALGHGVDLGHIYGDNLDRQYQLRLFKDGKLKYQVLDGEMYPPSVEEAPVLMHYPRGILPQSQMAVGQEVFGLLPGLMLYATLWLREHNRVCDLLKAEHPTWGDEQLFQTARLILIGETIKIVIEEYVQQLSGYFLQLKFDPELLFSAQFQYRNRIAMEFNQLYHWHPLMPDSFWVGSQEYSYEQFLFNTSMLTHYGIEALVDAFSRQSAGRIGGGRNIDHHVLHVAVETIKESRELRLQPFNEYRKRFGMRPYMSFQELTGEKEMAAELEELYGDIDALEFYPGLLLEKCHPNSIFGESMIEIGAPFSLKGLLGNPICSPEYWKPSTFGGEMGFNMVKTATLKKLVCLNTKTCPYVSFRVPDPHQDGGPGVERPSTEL

B1: r57: translationally recoded 57 kD rat COX-3 protein, expressed by transfection in CHO cells (protein)
chain: MRLVITVRSNLIPSPPTYNTAHDYISWESFSNVSYYTRILPSVPKDCPTPMGTKGKKQLPDIHLLAQRLLLRREFIPGPQGTNVLFAFFAQHFTHQFFKTSGKMGPGFTKALGHGVDLGHIYGDSLERQYHLRLFKDGKLKYQVLDGEVYPPSVEQASVLMRYPPGVPPEKQMAVGQEVFGLLPGLMLFSTIWLREHNRVCDLLKEEHPTWDDEQLFQTTRLILIGETIKIIIEEYVQHLSGYFLQLKFDPELLFRAQFQYRNRIALEFNHLYHWHPLMPDSFQVGSQEYSYEQFLFNTSMLVDYGVEALVDAFSRQRAGRIGGGRNFDYHVLHVAEDVIKESREMRLQSFNEYRKRFGLKPYTSFQEFTGEKEMAAELEELYGDIDALEFYPGLMLEKCQPNSLFGESMIEMGAPFSLKGLLGNPICSPEYWKPSTFGGDVGFNIVNTASLKKLVCLNTKTCPYVSFRVPDYPGDDGSVFVRPSTEL
B2: r44: translationally recoded 44 kD rat COX-3 protein, expressed by transfection in CHO cells (protein)
chain: MGPGFTKALGHGVDLGHIYGDSLERQYHLRLFKDGKLKYQVLDGEVYPPSVEQASVLMRYPPGVPPEKQMAVGQEVFGLLPGLMLFSTIWLREHNRVCDLLKEEHPTWDDEQLFQTTRLILIGETIKIIIEEYVQHLSGYFLQLKFDPELLFRAQFQYRNRIALEFNHLYHWHPLMPDSFQVGSQEYSYEQFLFNTSMLVDYGVEALVDAFSRQRAGRIGGGRNFDYHVLHVAEDVIKESREMRLQSFNEYRKRFGLKPYTSFQEFTGEKEMAAELEELYGDIDALEFYPGLMLEKCQPNSLFGESMIEMGAPFSLKGLLGNPICSPEYWKPSTFGGDVGFNIVNTASLKKLVCLNTKTCPYVSFRVPDYPGDDGSVFVRPSTEL

How the values were obtained:
canine COX-3 = target: T1, canine COX-3; details: cited from earlier work
[1] = target: C-terminal RFP labeled ATG9
[2] = system: encephalomyocarditis virus (EMCV); experiment: EMCV replication in transfected CHO cells, plaque-forming assay; format: cell-based; details: compared to Empty vector
Description: The rCOX constructs being related to ancient unicellular COX and evidence showing their involvement in the formation of innate immune responsive autophagic structures. EMCV is a positive strand RNA picornavirus implicated in human febrile illness. Also, the mTOR small molecule inhibitor rapamycin is shown to stimulate protein synthesis of EMCV proteins (Ref) and that autophagy specifically is shown to promote EMCV viral replication. We infected rCOX or/and cNuc transfected/co-transfected CHO cells with EMCV to determine their influence in viral replication. The media was collected and plaque forming assays were then performed and plaques were counted compared to Empty vector plaque counts.
CHO cells were seeded to the night before infection to complete confluence. Cells were washed twice with DMEM F/12 media before infection. Virus were placed on top of cells and allowed to absorb for 1 hour angling the cells every 10 minutes to ensure cells were fully covered. After adsorption the media was remove and cells washed twice with DMEM F/12 media. Agar at 2% in PBS was melted and mixed with warm DMEM/F12 with 20% FBS and then laid on top of the cells. The virus was allowed to replicate for 36 hours and then 5 mg/mL of MTT in PBS was added to visualize the cells. Plaques were counted using light microscope.

Molecule | co-localisation by confocal microscopy (Pearson coefficient) (Pearson coefficient) [1] | further results
CC(=O)Nc1ccc(O)cc1 [acetaminophen] |  | effect on canine COX-3 (canine COX-3): specifically inhibited
FLAG tagged rc44 (translationally recoded rat COX-3 44 kD protein) (from UniProt Q63921) (enzyme) | 0.928 | 
FLAG tagged rc50 (translationally recoded rat COX-3 50 kD protein) (from UniProt Q63921) (enzyme) | 0.954 | 
FLAG tagged rc57 (translationally recoded rat COX-3 57 kD protein) (from UniProt Q63921) (enzyme) | 0.973 | 
B1 |  | inhibition of virion production [2]: 40%
B2 |  | number of EMCV virions [2]: doubled

Source: patent US20150184159A1, “USE OF COX-3 BINDING MOLECULES FOR MODULATING AUTOPHAGY” (priority 2013, published 2015)
